Experimental data published in US20200181677A1, “SCREENING SYSTEM AND METHODS FOR IDENTIFYING ENZYME SUBSTRATES AND MODULATORS OF ENZYME ACTIVITY” (Regents of the University of Minnesota, priority 2017, published 2020).
Entries after “also recorded” stand apart in the source; their conditions may differ.

Experiments:
PKCα catalytic domain [1] = target: T1, PKCα catalytic domain (Homo sapiens, UniProt P17252); assay: Kinase activity assay (ATP consumption, Kinase-Glo Max); assay type: biochemical; details: for Kinase activity toward the peptide substrate, in words: 500 μM peptide, isolated catalytic domain
T1 construct: All activity assays were performed with 50 nM isolated catalytic domain in PKC Buffer; fused substrate peptide with the fluorophore next to it (N, cleaved yes); second fluorophore of the mCerulean/mCitrine pair (next to the catalytic domain) (N); FLAG; made in house; host or cells: Sf9 insect cells (pBiex1), then on-resin TEV cleavage
Description: All activity assays were performed with 50 nM isolated catalytic domain in PKC Buffer at 21-22° C. for 2-6 minutes. Experiments comparing the basal activity of different FRET sensors (FIG. 5A) were performed with 50 μM MBP peptide from GenScript. For all other activity experiments (FIGS. 3F, 4B, 5B, and 6B), the final peptide concentration was 500 μM. Activity was measured by monitoring ATP consumption with the Kinase-Glo Max Luminescence Assay Kit (Promega; Madison, Wis.). End-point luminescence was measured in white, 96-well plates using a M5e Spectramax spectrophotometer (Molecular Devices; San Jose, Calif.). For each experimental condition, ≥2 independent experiments were performed for ≥3 protein preparations (N≥6).
Kinase specific activity was inferred from the ATP consumed in phosphorylation reactions using the KINASE-GLO® Max Luminescence Assay Kit (Promega; Madison, Wis.). ATP depletion was monitored with the KINASE-GLO® Reagent, which uses luciferin, oxygen, and ATP as substrates in a reaction that produces oxyluciferin and light. The luminescent signal is linearly proportional to the amount of ATP remaining following the phosphorylation reaction.
Activity assays were performed using the catalytic domain (25-75 nM) and 500-μM peptide in PKC Buffer. Reactions were initiated by the addition of 250 μM ATP to a total reaction volume of 80 μL in U-bottom, white 96-well plates. Following a 3 minute incubation at 22° C., reactions were quenched and subsequent steps were performed as per instructions from the kit provider. End-point luminescence was measured in a FLEXSTATION® 3 plate reader (Molecular Devices). […] For each experimental condition, ≥2 independent measurements were performed for ≥3 protein preparations (N≥6).

PKCα catalytic domain [2] = target: T1, PKCα catalytic domain; assay: Time-resolved fluorescence decay (TCSPC) of peptide-catalytic domain FRET sensors; assay type: binding; details: means ± SEM, N = 3; for Mol Fraction Bound / Mol Fraction Unbound: eGFP/mCherry sensors, PKC Buffer containing 100 μM ATP; for Mol Fraction Bound: A2/(A1+A2); for τ2: second lifetime of bi-exponential fit, τ1 fixed to donor linker control (2.56 ± 0.01 ns)
Description: FIG. 4A is a graph plotting a comparison between steady-state FRET and fractional binding for four alanine-containing peptide sensors. For fractional binding, fluorescence decay single photon counting data was fit to I(t)=A1e^−t/τ^1+A2e^−t/τ^2, where τ1 was set to the lifetime of a 10 nm ER/K linker control (see, TABLE 1). The mol fraction of the bound state(s) was calculated as A2/(A1+A2).
Time-resolved fluorescence decay measurements were taken by single photon counting (SPC-130-EM, Becker & Hickl) using a 485 nm sub-nanosecond pulse diode laser (PicoQuant), a 519 bandpass filter, and a PMH-100 photomultiplier module (Photonics Solutions) (Autry et al., J. Biol. Chem. 287:39070-39082, 2012). Sensors contained the eGFP and mCherry FRET pair, and all experiments were performed with 50-100 nM protein in PKC Buffer containing 100 μM ATP and 0.1 mg/mL BSA. Data were fit to the second exponential decay, I(t)=A1e^−t/τ^1+A2e^−t/τ^2, where τ1 was set to the lifetime of a 10 nm ER/K linker control. Each experimental condition was collected from three independent protein batches (N=3).
Time-correlated single photon counting (TCSPC) was used to test whether changes in steady-state FRET reflect changes in fractional binding of the peptide to the catalytic domain (FIG. 1). TCSPC is a method for measuring time-resolved fluorescence that provides information on complex decay kinetics and population states (Lakowicz, Principles of Fluorescence Spectroscopy, 3rd ed., Springer, New York, 2006). Using this method, the relative population of interacting to non-interacting species was measured for four peptide sensors displaying a range of steady-state FRET ratios (FIG. 2).

PKCα catalytic domain [3] = target: T1, PKCα catalytic domain; assay: Steady-state FRET measurements of peptide sensors; assay type: binding; details: for Binding strength of the peptide to the catalytic domain (steady-state FRET ratio), in words: 10 nm ER/K linker sensors; for Peptide interaction with the catalytic domain on addition of nucleotide (ΔFRET): 100 μM compound, alanine-substituted peptide sensors
Description: All experiments were performed with 30-50 nM protein in PKC Buffer at 21-22° C. Samples were prepared in tubes pre-coated with 0.1 mg/mL BSA to limit protein sticking to tube walls. Protein samples were excited at 430 nm (mCer) with an 8-nm band pass, and emission monitored from 450 to 650 nm. The FRET ratio was calculated from the ratio of the emission for mCit (525 nm) to mCer (475 nm). Final concentrations of 100 μM ATP, 100 μM ADP, 100 μM Sangivamycin, or BimI were added as indicated. For each experimental condition, ≥3 independent protein batches were used and at least two replicates were measured for each independent experiment (N≥3).
Protein-protein interactions in live cells using SPASM FRET sensors have been extensively monitored as described elsewhere (Sivaramakrishnan and Spudich, supra; Swanson et al., supra; and Malik et al., J Biol. Chem. 288:17167-17178, 2013). FRET measurements provide a direct measure of the binding strength of the substrate peptides to the kinase catalytic domain (Sivaramakrishnan and Spudich, supra; and Sommese et al., J. Biol. Chem. 292:2873-2880, 2017). Before each experiment, purified sensors were centrifuged (17645 g, 4° C.) to remove any insoluble protein. All experiments were performed with 50 nM protein in PKC Buffer at 21-22° C. Samples were prepared in tubes pre-coated with BSA (0.1 mg/ml) to limit protein loss through adsorption to tube walls. FRET measurements were performed using FluoroMax-4 fluorometer (Horiba Scientific). Sensors were loaded in a quartz cuvette (1 cm path length) and excited at 430 nm with an 8-nm band pass, and emission was monitored (4-nm band pass) from 450 to 650 nm. The FRET ratio was calculated from the ratio of the emission for mCitrine (525 nm) to mCerulean (475 nm). For each experimental condition, ≥2 experimental replicates were measured for ≥3 independent protein batches (N≥6).

12: peptide substrate RRFKRQGSFFYFF, SEQ ID NO:26, Optimized PKCζ Sub. [Peptide 12]
Kinase activity toward the peptide substrate, in words (PKCα catalytic domain [1]; listed as p12): lowest kinase activity; also recorded: poor activity | Effect on catalytic turnover with low affinity-high activity peptide #6 (PKCα catalytic domain [1]; equimolar peptides #6 and #12): essentially inhibited

8: peptide substrate IVRKATLRRLL, SEQ ID NO:18, from EGF Receptor; Ala-substituted sensor form SEQ ID NO:17 [Peptide 8]
Mol Fraction Bound (PKCα catalytic domain [2]): 0.11 ± 0.01 | Mol Fraction Unbound (PKCα catalytic domain [2]): 0.89 ± 0.01 | τ2 (PKCα catalytic domain [2]): 0.66 ± 0.06 ns | Binding strength of the peptide to the catalytic domain (steady-state FRET ratio), in words (PKCα catalytic domain [3]): medium binding

10: peptide substrate RRRRSIIFI, SEQ ID NO:22, Optimized PKA Sub.; Ala-substituted in FRET sensors [Peptide 10]
Mol Fraction Bound (PKCα catalytic domain [2]): 0.16 ± 0.01 | Mol Fraction Unbound (PKCα catalytic domain [2]): 0.84 ± 0.01 | τ2 (PKCα catalytic domain [2]): 0.83 ± 0.06 ns | Kinase activity toward the peptide substrate, in words (PKCα catalytic domain [1]): poor activity

NRFARKGDLRQKNV [Peptide S14D]
Binding strength of the peptide to the catalytic domain (steady-state FRET ratio), in words (PKCα catalytic domain [3]): decreased affinity

CN(C)CCCn1cc(C2=C(c3c[nH]c4ccccc34)C(=O)NC2=O)c2ccccc21 [BimI, Bisindolylmaleimide I, reference compound]
Effect on the ATP-dependent substrate-kinase interaction (steady-state FRET) (PKCα catalytic domain [3]; peptide #8 and #11 sensors, 100 μM ATP, BimI titration): abrogated

9: peptide substrate ARKRERTYSFGHHA, SEQ ID NO:20, Optimized AKT Sub. [Peptide 9]
Binding strength of the peptide to the catalytic domain (steady-state FRET ratio), in words (PKCα catalytic domain [3]): medium binding

Nc1ncnc2c1ncn2[C@@H]1O[C@H](COP(=O)(O)OP(=O)(O)O)[C@@H](O)[C@H]1O [ADP, reference compound]
Peptide interaction with the catalytic domain on addition of nucleotide (ΔFRET) (PKCα catalytic domain [3]): also occurred

3: peptide substrate LAGGFSFKKNK, SEQ ID NO:8, from MARCKS (KLAGFSFKKNK) [Peptide 3]
Kinase activity toward the peptide substrate, in words (PKCα catalytic domain [1]): high activity

2: peptide substrate RVVGGSLRGAQ, SEQ ID NO:6, from PTP1B [Peptide 2]
Kinase activity toward the peptide substrate, in words (PKCα catalytic domain [1]; listed as p2): high kinase activity

11: peptide substrate FKLKRKGTFKKFA, SEQ ID NO:35, Optimized PKCβ Sub.; Ala-substituted sensor form SEQ ID NO:23 [Peptide 11]
Mol Fraction Bound (PKCα catalytic domain [2]): 0.15 ± 0.01 | Mol Fraction Unbound (PKCα catalytic domain [2]): 0.85 ± 0.01 | τ2 (PKCα catalytic domain [2]): 0.88 ± 0.06 ns | Kinase activity toward the peptide substrate, in words (PKCα catalytic domain [1]): poor activity | Activity of the peptide FRET sensor for the same substrate (PKCα catalytic domain [1]; 10 nm linker sensors, 50 μM MBP peptide): much lower activity

NC(=O)c1cn([C@@H]2O[C@H](CO)[C@@H](O)[C@H]2O)c2ncnc(N)c12 [Sangivamycin, reference compound]
Peptide interaction with the catalytic domain on addition of nucleotide (ΔFRET) (PKCα catalytic domain [3]): also occurred

Nc1ncnc2c1ncn2[C@@H]1O[C@H](COP(=O)(O)OP(=O)(O)OP(=O)(O)O)[C@@H](O)[C@H]1O [ATP, reference compound]
Peptide interaction with the catalytic domain on addition of nucleotide (ΔFRET) (PKCα catalytic domain [3]): significant increase

NRFARKGALRQKNV [Peptide 14]
Binding strength of the peptide to the catalytic domain (steady-state FRET ratio), in words (PKCα catalytic domain [3]): bound more strongly | Inhibition of ATP turnover of the catalytic domain for serine-containing peptide #14 (PKCα catalytic domain [1]; equimolar competing peptide): significantly better at inhibiting catalytic activity

6: peptide substrate ASQKRPSQRH, SEQ ID NO:14, from Myelin Basic Protein; Ala-substituted in FRET sensors [Peptide 6]
Mol Fraction Bound (PKCα catalytic domain [2]): 0.08 ± 0.01 | Mol Fraction Unbound (PKCα catalytic domain [2]): 0.92 ± 0.01 | τ2 (PKCα catalytic domain [2]): 0.49 ± 0.05 ns

1: peptide substrate ADKRRSVRIGA, SEQ ID NO:4, from Kit/SCRF; Ala-substituted in FRET sensors [Peptide 1]
Kinase activity toward the peptide substrate, in words (PKCα catalytic domain [1]): high activity
